Patent publication US20230190950A1, “COMPOSITIONS AND METHODS FOR THE TREATMENT OF BACTERIAL INFECTIONS” (Cidara Therapeutics, Inc., priority 2017, published 2023)

What was measured:
[1] = tested on: Escherichia coli BW25113; assay: MIC assay (broth microdilution), Ec BW; assay type: cell-based; details: assay media RPMI A; for MIC, Ec BW + FBS: 50% heat-inactivated FBS
Description: (§1) Bacterial strains were stored as glycerol stocks at −80° C. prior to culturing on cation-adjusted Mueller-Hinton agar (MHA; BD cat. no. 211438) at 37° C. Antibacterial activity was assessed against a panel consisting of Escherichia coli, Acinetobacter baumannii, Pseudomonas aeruginosa, and Klebsiella pneumoniae strains (see Table 2).
(§2) Briefly, stock solutions of all antibacterial agents were prepared fresh in appropriate solvents (i.e. PBS, pH 7.4, DMSO, DI, etc.). Stock concentrations were made at 50× the highest final assay concentration and serially diluted 2-fold, 8 or 12 times in a 96-well PCR plate (VWR cat. no. 83007-374). Bacterial cell suspensions generated from MHA plate cultures were prepared in 0.85% saline and adjusted to ˜0.1 OD600 nm. […] Dorschner R A et al., The mammalian ionic environment dictates microbial susceptibility to antimicrobial defense peptides. FASEB J. 20(1):35-42 (2017). Ninety-eight microliters of each cell suspension in MHB were added to test wells in a 96-well assay plate (Costar cat. no. 3370). A Beckman Multimek 96 liquid handling robot was used to dispense 2 μL of each 50× stock compound into the plate containing 98 μL of each strain in MHB (2% final solvent concentration). E. coli strains BW25113 and ATCC 25922 were run in the presence and absence of 50% heat-inactivated fetal bovine serum (FBS; Sigma, cat. no. F4135-100 mL). Plates were mixed by shaking then incubated at 37° C. overnight (16-20 h).

[2] = tested on: Escherichia coli ATCC 25922; assay: MIC assay (broth microdilution), Ec 25922; assay type: cell-based; details: assay media RPMI A; for MIC, Ec 25922 + FBS: 50% heat-inactivated FBS
Description: as §1, §2

[3] = tested on: Escherichia coli BW25113 4X-12 (COL-R); assay: MIC assay (broth microdilution), Ec BW 4X-12 (COL-R); assay type: cell-based; details: assay media RPMI A
Description: as §1
(§3) Briefly, stock solutions of all antibacterial agents were prepared fresh in appropriate solvents (i.e. PBS, pH 7.4, DMSO, DI, etc.). Stock concentrations were made at 50× the highest final assay concentration and serially diluted 2-fold, 8 or 12 times in a 96-well PCR plate (VWR cat. no. 83007-374). Bacterial cell suspensions generated from MHA plate cultures were prepared in 0.85% saline and adjusted to ˜0.1 OD600 nm. Next, cell suspensions were diluted 1:200 in RPMI containing 5% Luria Broth (LB) to improve bacterial growth (BD Difco, cat. no. 244620) to a concentration of ˜5×10^5 CFU (colony-forming units)/mL. […] Later, conjugates 16 and 17, and 20-25 were evaluated in RPMI 1640 medium (+) L-glutamine, (+) sodium bicarbonate, pH 7.4 (“RPMI B”; Gibco, cat. no. 11875-085) as has been described as a more physiologically-relevant media for susceptibility testing of antibacterial compounds. Dorschner R A et al., The mammalian ionic environment dictates microbial susceptibility to antimicrobial defense peptides. FASEB J. 20(1):35-42 (2017). Ninety-eight microliters of each cell suspension in MHB were added to test wells in a 96-well assay plate (Costar cat. no. 3370). A Beckman Multimek 96 liquid handling robot was used to dispense 2 μL of each 50× stock compound into the plate containing 98 μL of each strain in MHB (2% final solvent concentration). E. coli strains BW25113 and ATCC 25922 were run in the presence and absence of 50% heat-inactivated fetal bovine serum (FBS; Sigma, cat. no. F4135-100 mL). Plates were mixed by shaking then incubated at 37° C. overnight (16-20 h).

[4] = tested on: Escherichia coli ATCC BAA-2469; assay: MIC assay (broth microdilution), Ec 2469; assay type: cell-based; details: assay media RPMI A
Description: as §1, §2

[5] = target: T1, recombinant mouse FcRn (Mus musculus, UniProt Q61559); assay: Binding of conjugates to FcRn (ELISA), mouse; details: pH 6.25; 20 μg/mL starting concentration, 2-fold diluted
T1 construct: purchased R&D 6775-FC-050
T1 sequence (Q61559 22-297 limits assumed): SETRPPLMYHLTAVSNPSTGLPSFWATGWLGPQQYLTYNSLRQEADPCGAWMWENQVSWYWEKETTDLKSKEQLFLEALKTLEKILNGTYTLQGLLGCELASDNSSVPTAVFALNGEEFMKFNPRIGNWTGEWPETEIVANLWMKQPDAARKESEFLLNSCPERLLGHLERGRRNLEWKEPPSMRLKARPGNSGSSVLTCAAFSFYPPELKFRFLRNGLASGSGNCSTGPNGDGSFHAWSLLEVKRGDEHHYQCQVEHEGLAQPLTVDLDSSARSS
T1 sequence (P01887 21-119 partner): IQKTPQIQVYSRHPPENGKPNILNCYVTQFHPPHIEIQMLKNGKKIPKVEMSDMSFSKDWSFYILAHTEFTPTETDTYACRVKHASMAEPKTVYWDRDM
Description: 96-well ELISA plates (Fisher, Cat. No. 12-565-136) were coated with 0.25 μg/well of recombinant mouse FcRn (R&D, Cat. No. 6775-FC-050) or recombinant human FcRn (R&D, Cat. No. 8639-FC-050) in carbonate-bicarbonate buffer (Sigma, Cat. No. C34041) at pH 6.25 overnight at 37° C. A pH of 6.25 was maintained during the complete experiment. Blocking was carried out with 5% skim milk in PBS with 0.05% Tween 20. Purified conjugates were added at 20 μg/mL starting concentration and serially 2-fold diluted in blocking buffer. For detection, HRP-labeled secondary anti-mouse IgG-HRP (GE Healthcare, Cat. No. NA931V) or anti-human IgG-HRP (GE Healthcare, Cat. No. NA933V) was used to detect the bound conjugates. Absorbance was measured at 450 nm with a 96-well microplate reader and data were analyzed using GraphPad Prism software, FIGS. 33A-33F.

[6] = tested on: Escherichia coli BW25113 + pUC18-mcr-1; assay: MIC assay (broth microdilution), Ec BW (mcr-1); assay type: cell-based; details: assay media RPMI A
Text: An mcr-1 expression plasmid was constructed (GenScript; Piscataway, N.J.) using the pUC18 high copy number plasmid (Yanisch-Perron, et al., 1985). A 1649-bp fragment was synthesized containing, in order from 5′ to 3′: EcoR1 restriction site (5′-GAATTC-3′), a ribosomal binding site (5′-AGGAGG-3′), a 5-bp native start codon upstream sequence (5′-TTCTC-3′) from the mcr-1-bearing plasmid pHNSHP45 (Liu, Y Y, et al., 2015; GenBank Accession #KP347127), the 1626-bp mcr-1 open reading frame with stop codon (“orf00073” of GenBank Accession #KP347127), and finally an Xba1 restriction site sequence (5′-TCTAGA-3′). […] The pUC18-mcr-1 plasmid was transformed into chemically-competent E. coli BW25113 (Coli Genetic Stock Center #7636) as described previously (Chung, et al., PNAS. 1989), recovered for 1 h shaking at 37° C. in Super Optimal broth with Catabolite repression (SOC) media and then aliquots were plated on Luria-Bertani (LB) media containing 100 μg/mL of carbenicillin. Putative transformant colonies were then verified in MIC assays.
as §1
Briefly, stock solutions of all antibacterial agents were prepared fresh in appropriate solvents (i.e. PBS, pH 7.4, DMSO, DI, etc.). Stock concentrations were made at 50× the highest final assay concentration and serially diluted 2-fold, 8 or 12 times in a 96-well PCR plate (VWR cat. no. 83007-374). Bacterial cell suspensions generated from MHA plate cultures were prepared in 0.85% saline and adjusted to ˜0.1 OD600 nm. […] Later, conjugates 16 and 17, and 20-25 were evaluated in RPMI 1640 medium (+) L-glutamine, (+) sodium bicarbonate, pH 7.4 (“RPMI B”; Gibco, cat. no. 11875-085) as has been described as a more physiologically-relevant media for susceptibility testing of antibacterial compounds. […]

[7] = tested on: Pseudomonas aeruginosa PAO1; assay: MIC assay (broth microdilution), Pa PAO1; assay type: cell-based; details: assay media RPMI A
Description: as §1, §3

[8] = tested on: Acinetobacter baumannii ABS075-UW; assay: MIC assay (broth microdilution), Ab ABS075; assay type: cell-based; details: assay media RPMI A
Description: as §1, §2

[9] = tested on: Acinetobacter baumannii ATCC 19606; assay: MIC assay (broth microdilution), Ab 19606; assay type: cell-based; details: assay media RPMI A
Description: as §1, §2

Molecule | MIC, Ec BW [1] | MIC, Ec BW + FBS [1] | MIC, Ec 25922 [2] | MIC, Ec 25922 + FBS [2] | MIC, Ec BW 4X-12 (COL-R) [3] | MIC, Ec 2469 [4] | binding to mouse FcRn (ELISA) [5] | MIC, Ec BW (mcr-1) [6] | MIC Pa PAO1 [7] | MIC Ab AB5075 [8] | MIC Ab 19606 [9]
Conjugate 15 (conjugate, cyclised or stapled) PRGPTIKPCPPCKCPAPNLLGGPSVFIFPPKIKDVLMISLSPIVTCVVVDVSEDDPDVQISWFVNNVEVHTAQTQTHREDYNSTLRVVSALPIQHQDWMSGKEFKCKVNNKDLPAPIERTISKPKGSVRAPQVYVLPPPEEEMTKKQVTLTCMVTDFMPEDIYVEWTNNGKTELNYKNTEPVLDSDGSYFMYSKLRVEKKNWVERNSYSCSVVHEGLHNHHTTKSFSRTPGKHHHHHH | >128 mg/L | >128 mg/L | >128 mg/L | >128 mg/L | >128 mg/L | >128 mg/L | does not interfere with FcRn interaction | >128 mg/L | 16 mg/L | >128 mg/L | >128 mg/L
Conjugate 4 (conjugate, cyclised or stapled) PRGPTIKPCPPCKCPAPNLLGGPSVFIFPPKIKDVLMISLSPIVTCVVVDVSEDDPDVQISWFVNNVEVHTAQTQTHREDYNSTLRVVSALPIQHQDWMSGKEFKCKVNNKDLPAPIERTISKPKGSVRAPQVYVLPPPEEEMTKKQVTLTCMVTDFMPEDIYVEWTNNGKTELNYKNTEPVLDSDGSYFMYSKLRVEKKNWVERNSYSCSVVHEGLHNHHTTKSFSRTPGKHHHHHH | 32 mg/L | 32 mg/L | >128 mg/L | 64 mg/L | >128 mg/L | >128 mg/L | does not interfere with FcRn interaction | >128 mg/L | 16 mg/L | 32 mg/L | 32 mg/L
